Results published in US9804152B1, “Human ex vivo skin model and its use in methods of identifying modulators of skin inflammation” (The Procter & Gamble Company, priority 2012, dated 2017).
Marks after values point to notes of the source that are not given here.

How the values were obtained:
Assay type in all cases: cell-based
[1] = tested on: ex vivo human skin sample; assay: Inducers of inflammation: inflammation marker secreted into the media by ex vivo skin samples (ELISA); details: 20 ng/ml IL-22 only, day 4; untreated about 5,800 pg/ml
Description: (§1) This Example describes the materials and methods used in preparing ex vivo skin samples for use according to the methods disclosed herein. Materials used in preparation of ex vivo skin samples for use in the disclosed screening methods included: Dulbecco's Modified Eagle Medium (DMEM) plus Glutamax, antibiotic and antimycotics, 1× phosphate-buffered saline (PBS), 150×15 mm sterile culture dishes, sterile gauze 4×4, disposable safety scalpels, 4 mm disposable biopsy punch, 6-well cell-culture inserts, disinfected tweezers, cotton-tipped applicators, 6-well culture plates, ruled, disinfected cutting mat (12×12), scraper handle, tissue freezing medium, biopsy cassettes, frozen-tissue freezing vessels, 10% formalin, shipping containers for fixed tissue, and biohazard/sharps containers. Media was prepared in advance of the arrival of ex vivo skin. The skin arrived with the dermis (fat) side down on sterile DMEM soaked gauze in a sterile culture dish. The culture dish was taped shut and in a biohazard zip-lock baggie on an ice pack in a secondary container.
(§2) On arrival, the skin was removed from the bag and soaked in 3×DMEM media (3× refers to concentration of antibiotic and antimycotics) and stored at 4° C. for 1 hour. After 1 hour, the skin was removed from the 3×DMEM and rinsed with sterile 1×PBS. The skin was placed in a clean culture dish containing gauze soaked with 1×DMEM. The sample was put in culture the same day as arrival. If necessary, however, the ex vivo skin samples can be stored at 4° C. overnight.
In preparation for culture, the following was performed: on a cutting mat, the skin was flipped over so that the epidermis was down and the subcutis (fat) was exposed. The fat was removed with a disposable scalpel by carefully grasping one corner of the skin with sterile serrated forceps and scraping the fat away with the blade held at a 45° angle to the skin. After the fat was removed, the surgical edges were cut off with a scalpel using a scraper as a straight edge guide and to hold the skin in place. […]

[2] = tested on: ex vivo human skin sample; assay: Histological analysis of ex vivo skin samples; details: IL-22 at 20 ng/mL, biopsied six days after treatment, vs untreated sample at 24 hours
Description: The first sample was analyzed 24 hours after being collected (i.e., biopsied) from an untreated ex vivo skin sample, and the second sample was collected (i.e., biopsied) from an ex vivo skin sample six days after the skin sample was treated with IL-22 at 20 ng/mL. […] Also consistent was the effect of 10 μM clobetasol in inhibiting inflammation, as measured by a reduction in marker gene expression. In particular, S100A7 was induced about 34-fold relative to untreated skin samples, with clobetasol leading to about 26-fold increase in expression relative to the untreated control. For IL-8, induction was about 16-fold and clobetasol reduced that to about 3-fold. For IL-6, induction was about 6-fold and clobetasol inhibited that value to about 0.3-fold relative to control values. For DEFB4, induction was about 800-fold and clobetasol reduced that increase to about 200-fold relative to controls.

[3] = tested on: ex vivo human skin sample; assay: Inducers of inflammation: inflammation marker gene expression in ex vivo skin samples (PCR); details: for CALML5 Up-Down Regulation (relative to control) / DEFB4 Up-Down Regulation (relative to control) / FLG Up-Down Regulation (relative to control) / IL-6 Up-Down Regulation (relative to control) / IL-8 Up-Down Regulation (relative to control) / KRT6A Up-Down Regulation (relative to control) / KRT10 Up-Down Regulation (relative to control) / S100A7 Up-Down Regulation (relative to control) / TNF-α Up-Down Regulation (relative to control): IL-17 or IL-22 alone, 96 hours
Description: as §1, §2
In preparation for culture, the following was performed: on a cutting mat, the skin was flipped over so that the epidermis was down and the subcutis (fat) was exposed. The fat was removed with a disposable scalpel by carefully grasping one corner of the skin with sterile serrated forceps and scraping the fat away with the blade held at a 45° angle to the skin. After the fat was removed, the surgical edges were cut off with a scalpel using a scraper as a straight edge guide and to hold the skin in place. Using the scraper as a guide, the skin was cut into 1.25 cm (2×2 squares on grid) wide strips using a ruler to measure the width. The strip was rinsed in a 100 mm culture dish containing 1×PBS. The strips were cut into 1.25 cm^2 squares and placed in a 100 mm culture dish on 1×DMEM-soaked gauze until they were put into culture 30 minutes later.
Culture plates were prepared that included 2.5 ml of media or media with treatment (e.g., a candidate modulator, an inflammation inducer, and/or an inhibitor of inflammation) in each well of a 6-well plate. One Millicell culture insert was added to each well and 100 μl of 1× DMEM was put in the center of each insert membrane. Squares of skin tissue were selected randomly and placed into each of the inserts (one piece of skin per insert), on top of the media on the membrane. The plates were stored at 33° C., with fresh media changes daily. As a control, baseline tissue measurements were collected from excess waste (cryogenics were used for snap-freezing). Baseline biopsy collection included two 4 mm punches for an MTT colorimetric assay (described below); one 4 mm punch was snap-frozen in OCT tissue compound for fresh histology; one 4 mm punch was fixed in 10% formalin and sent out for paraffin embedding. Expression measurements of inflammation marker genes were performed using PCR and primers appropriate to the known sequence of the gene(s) of interest.
Culturing and treatment of the ex vivo skin model comprised replicates of n=5. Before experimental treatment, compounds (e.g., a candidate modulator, an inflammation inducer, or a suppressor of inflammation) were solubilized in appropriate solvents (including PBS, media, alcohol, and DMSO). Appropriate dilutions were made for treatment and 15 ml of media was used per plate per day for treatment, with 2.5 ml of media per well under the cell culture insert. Media was pre-warmed and changed every day during the experiment.

B1: IL-22: pro-inflammatory cytokine used as inducer of inflammation; also inducer of cell proliferation (protein, UniProt Q9GZX6 34-179, looked up)
Interleukin-22: APISSHCRLDKSNFQQPYITNRTFMLAKEASLADNNTDVRLIGEKLFHGVSMSERCYLMKQVLNFTLEEVLFPQSDRFQPYMQEVVPFLARLSNRLSTCHIEGDDLHIQRNVQKLKDTVKKLGESGEIKAIGELDLLFMSLRNACI
- IL-8 secreted into the media [1]: about 5,500 pg/ml
- histology: skin cell proliferation (basal layer) [2]: clearly exhibits a proliferative basal layer
- induction of inflammation in ex vivo skin samples, in words [3]: shown to induce inflammation in ex vivo skin samples
- DEFB4 expression relative to an untreated ex vivo skin sample ([3]; 2 ng/ml IL-22): 0.00
- KRT10 fold-expression level relative to an untreated ex vivo skin sample ([3]; 2 ng/ml IL-22): about 0.00 fold
- DEFB4 expression relative to an untreated ex vivo skin sample ([3]; 20 ng/ml IL-22): about 3.00
- KRT10 fold-expression level relative to an untreated ex vivo skin sample ([3]; 20 ng/ml IL-22): about −3.00 fold
- DEFB4 expression relative to an untreated ex vivo skin sample ([3]; 200 ng/ml IL-22): about 20.00
- KRT10 fold-expression level relative to an untreated ex vivo skin sample ([3]; 200 ng/ml IL-22): about −18.00 fold
- CALML5 Up-Down Regulation (relative to control) ([3]; 2 ng/ml): 1.17*
- DEFB4 Up-Down Regulation (relative to control) ([3]; 2 ng/ml): −1.03
- FLG Up-Down Regulation (relative to control) ([3]; 2 ng/ml): 1.28
- IL-6 Up-Down Regulation (relative to control) ([3]; 2 ng/ml): 1.35
- IL-8 Up-Down Regulation (relative to control) ([3]; 2 ng/ml): 1.71*
- KRT6A Up-Down Regulation (relative to control) ([3]; 2 ng/ml): −1.16
- KRT10 Up-Down Regulation (relative to control) ([3]; 2 ng/ml): 1.40
- S100A7 Up-Down Regulation (relative to control) ([3]; 2 ng/ml): 1.02
- TNF-α Up-Down Regulation (relative to control) ([3]; 2 ng/ml): 1.95*
- CALML5 Up-Down Regulation (relative to control) ([3]; 20 ng/ml): −2.29*
- DEFB4 Up-Down Regulation (relative to control) ([3]; 20 ng/ml): 2.69*
- FLG Up-Down Regulation (relative to control) ([3]; 20 ng/ml): −10.55*
- IL-6 Up-Down Regulation (relative to control) ([3]; 20 ng/ml): 1.30
- IL-8 Up-Down Regulation (relative to control) ([3]; 20 ng/ml): 1.43
- KRT6A Up-Down Regulation (relative to control) ([3]; 20 ng/ml): 1.32
- KRT10 Up-Down Regulation (relative to control) ([3]; 20 ng/ml): −2.69*
- S100A7 Up-Down Regulation (relative to control) ([3]; 20 ng/ml): 2.04*
- TNF-α Up-Down Regulation (relative to control) ([3]; 20 ng/ml): 1.56*
- CALML5 Up-Down Regulation (relative to control) ([3]; 200 ng/ml): −4.61*
- DEFB4 Up-Down Regulation (relative to control) ([3]; 200 ng/ml): 20.23*
- FLG Up-Down Regulation (relative to control) ([3]; 200 ng/ml): −13.37*
- IL-6 Up-Down Regulation (relative to control) ([3]; 200 ng/ml): 1.31
- IL-8 Up-Down Regulation (relative to control) ([3]; 200 ng/ml): 1.72*
- KRT6A Up-Down Regulation (relative to control) ([3]; 200 ng/ml): 1.08
- KRT10 Up-Down Regulation (relative to control) ([3]; 200 ng/ml): −17.54*
- TNF-α Up-Down Regulation (relative to control) ([3]; 200 ng/ml): 1.33*
